Results taken from patent publication US9993529B2, “Stable formulations of a hyaluronan-degrading enzyme” (Halozyme, Inc., priority 2011, dated 2018).

Assay: RP-HPLC insulin apparent solubility / percent recovery (content)
Details: 7 days at 2-8° C.
Protocol: Apparent solubility was measured as the percent insulin recovery as compared to the initial formulations/conditions.
Samples were prepared by withdrawing 100 μL from each vial at every time point and centrifuging prior to loading. Samples were stored in an autosampler at 4° C. prior to use, and were considered stable for 3 days after preparation. All samples were tested in duplicate.
For insulin, 20 μL was injected for each HPLC run.
To determine the apparent solubility, the peak area of insulin/insulin analog main peak and desamido peak were integrated and combined together to calculate the percentage relative to the standards. […] The data were processed using Design-Expert® 7.0 (StatEase) and the “historical data” feature. Insulin percent purity was expressed as the percent of main insulin versus all insulin species.

For Aspart: AspB28 human insulin analog, the “Solubility of Insulin Aspart” value (0.2% methylparaben + […] m-cresol, pH 6.6, NaCl 50 mM) was 57.7%, the “Solubility of Insulin Aspart” value (0.2% methylparaben + […] m-cresol, pH 6.6, NaCl 80 mM) was 32.1% and the “Solubility of Insulin Aspart” value (0.2% methylparaben + […] m-cresol, pH 6.6, NaCl 110 mM) was 21.1%. The “Solubility of Insulin Aspart” value (0.2% methylparaben + […] m-cresol, pH 6.6, NaCl 140 mM) was 14.7%, the “Solubility of Insulin Aspart” value (0.2% methylparaben + […] m-cresol, pH 6.8, NaCl 50 mM) was 97.2% and the “Solubility of Insulin Aspart” value (0.2% methylparaben + […] m-cresol, pH 6.8, NaCl 80 mM) was 84.1%. The “Solubility of Insulin Aspart” value (0.2% methylparaben + […] m-cresol, pH 6.8, NaCl 110 mM) was 54.2%, the “Solubility of Insulin Aspart” value (0.2% methylparaben + […] m-cresol, pH 6.8, NaCl 140 mM) was 32.2% and the “Solubility of Insulin Aspart” value (0.2% methylparaben + […] m-cresol, pH 7.0, NaCl 50 mM) was 98.7%. For the same substance, the “Solubility of Insulin Aspart” value (0.2% methylparaben + […] m-cresol, pH 7.0, NaCl 80 mM) was 100.2%, the “Solubility of Insulin Aspart” value (0.2% methylparaben + […] m-cresol, pH 7.0, NaCl 110 mM) was 96.3% and the “Solubility of Insulin Aspart” value (0.2% methylparaben + […] m-cresol, pH 7.0, NaCl 140 mM) was 67.9%. For the same substance, the “Solubility of Insulin Aspart” value (0.2% methylparaben + […] m-cresol, pH 7.2, NaCl 50 mM) was 99.0%, the “Solubility of Insulin Aspart” value (0.2% methylparaben + […] m-cresol, pH 7.2, NaCl 80 mM) was 100.2% and the “Solubility of Insulin Aspart” value (0.2% methylparaben + […] m-cresol, pH 7.2, NaCl 110 mM) was 99.5%. The “Solubility of Insulin Aspart” value (0.2% methylparaben + […] m-cresol, pH 7.2, NaCl 140 mM) was 101.6%, the “Solubility of Insulin Aspart” value (0.2% methylparaben + […] m-cresol, pH 7.4, NaCl 50 mM) was 99.1% and the “Solubility of Insulin Aspart” value (0.2% methylparaben + […] m-cresol, pH 7.4, NaCl 80 mM) was 100.5%. For the same substance, the “Solubility of Insulin Aspart” value (0.2% methylparaben + […] m-cresol, pH 7.4, NaCl 110 mM) was 99.6%, the “Solubility of Insulin Aspart” value (0.2% methylparaben + […] m-cresol, pH 7.4, NaCl 140 mM) was 99.6% and the “Solubility of Insulin Aspart” value (0.2% methylparaben + […] m-cresol, pH 7.6, NaCl 50 mM) was 99.3%. The “Solubility of Insulin Aspart” value (0.2% methylparaben + […] m-cresol, pH 7.6, NaCl 80 mM) was 100.6%, the “Solubility of Insulin Aspart” value (0.2% methylparaben + […] m-cresol, pH 7.6, NaCl 110 mM) was 99.8% and the “Solubility of Insulin Aspart” value (0.2% methylparaben + […] m-cresol, pH 7.6, NaCl 140 mM) was 99.8%. The “Solubility of Insulin Aspart” value (0.2% phenol + […] m-cresol, pH 6.6, NaCl 50 mM) was 91.8%, the “Solubility of Insulin Aspart” value (0.2% phenol + […] m-cresol, pH 6.6, NaCl 80 mM) was 59.2% and the “Solubility of Insulin Aspart” value (0.2% phenol + […] m-cresol, pH 6.6, NaCl 110 mM) was 58.0%. The “Solubility of Insulin Aspart” value (0.2% phenol + […] m-cresol, pH 6.6, NaCl 140 mM) was 39.3%, the “Solubility of Insulin Aspart” value (0.2% phenol + […] m-cresol, pH 6.8, NaCl 50 mM) was 98.8% and the “Solubility of Insulin Aspart” value (0.2% phenol + […] m-cresol, pH 6.8, NaCl 80 mM) was 91.8%. For the same substance, the “Solubility of Insulin Aspart” value (0.2% phenol + […] m-cresol, pH 6.8, NaCl 110 mM) was 72.8%, the “Solubility of Insulin Aspart” value (0.2% phenol + […] m-cresol, pH 6.8, NaCl 140 mM) was 50.9% and the “Solubility of Insulin Aspart” value (0.2% phenol + […] m-cresol, pH 7.0, NaCl 50 mM) was 99.1%. For the same substance, the “Solubility of Insulin Aspart” value (0.2% phenol + […] m-cresol, pH 7.0, NaCl 80 mM) was 100.6%, the “Solubility of Insulin Aspart” value (0.2% phenol + […] m-cresol, pH 7.0, NaCl 110 mM) was 99.9% and the “Solubility of Insulin Aspart” value (0.2% phenol + […] m-cresol, pH 7.0, NaCl 140 mM) was 88.9%. For the same substance, the “Solubility of Insulin Aspart” value (0.2% phenol + […] m-cresol, pH 7.2, NaCl 50 mM) was 99.1%, the “Solubility of Insulin Aspart” value (0.2% phenol + […] m-cresol, pH 7.2, NaCl 80 mM) was 100.5% and the “Solubility of Insulin Aspart” value (0.2% phenol + […] m-cresol, pH 7.2, NaCl 110 mM) was 100.0%. The “Solubility of Insulin Aspart” value (0.2% phenol + […] m-cresol, pH 7.2, NaCl 140 mM) was 99.7%, the “Solubility of Insulin Aspart” value (0.2% phenol + […] m-cresol, pH 7.4, NaCl 50 mM) was 99.2% and the “Solubility of Insulin Aspart” value (0.2% phenol + […] m-cresol, pH 7.4, NaCl 80 mM) was 100.6%. The “Solubility of Insulin Aspart” value (0.2% phenol + […] m-cresol, pH 7.4, NaCl 110 mM) was 100.0%, the “Solubility of Insulin Aspart” value (0.2% phenol + […] m-cresol, pH 7.4, NaCl 140 mM) was 99.7% and the “Solubility of Insulin Aspart” value (0.2% phenol + […] m-cresol, pH 7.6, NaCl 50 mM) was 99.2%. The “Solubility of Insulin Aspart” value (0.2% phenol + […] m-cresol, pH 7.6, NaCl 80 mM) was 100.8%, the “Solubility of Insulin Aspart” value (0.2% phenol + […] m-cresol, pH 7.6, NaCl 110 mM) was 100.2% and the “Solubility of Insulin Aspart” value (0.2% phenol + […] m-cresol, pH 7.6, NaCl 140 mM) was 99.8%. The “Solubility of Insulin Aspart” value ([…] phenol + […] m-cresol, pH 6.6, NaCl 50 mM) was 97.9%, the “Solubility of Insulin Aspart” value ([…] phenol + […] m-cresol, pH 6.6, NaCl 80 mM) was 86.3% and the “Solubility of Insulin Aspart” value ([…] phenol + […] m-cresol, pH 6.6, NaCl 110 mM) was 54.4%. The “Solubility of Insulin Aspart” value ([…] phenol + […] m-cresol, pH 6.6, NaCl 140 mM) was 38.3%, the “Solubility of Insulin Aspart” value ([…] phenol + […] m-cresol, pH 6.8, NaCl 50 mM) was 99.8% and the “Solubility of Insulin Aspart” value ([…] phenol + […] m-cresol, pH 6.8, NaCl 80 mM) was 97.9%. The “Solubility of Insulin Aspart” value ([…] phenol + […] m-cresol, pH 6.8, NaCl 110 mM) was 97.5%, the “Solubility of Insulin Aspart” value ([…] phenol + […] m-cresol, pH 6.8, NaCl 140 mM) was 60.5% and the “Solubility of Insulin Aspart” value ([…] phenol + […] m-cresol, pH 7.0, NaCl 50 mM) was 99.7%. For the same substance, the “Solubility of Insulin Aspart” value ([…] phenol + […] m-cresol, pH 7.0, NaCl 80 mM) was 99.3%, the “Solubility of Insulin Aspart” value ([…] phenol + […] m-cresol, pH 7.0, NaCl 110 mM) was 99.3% and the “Solubility of Insulin Aspart” value ([…] phenol + […] m-cresol, pH 7.0, NaCl 140 mM) was 100.2%. The “Solubility of Insulin Aspart” value ([…] phenol + […] m-cresol, pH 7.2, NaCl 50 mM) was 99.1%, the “Solubility of Insulin Aspart” value ([…] phenol + […] m-cresol, pH 7.2, NaCl 80 mM) was 99.2% and the “Solubility of Insulin Aspart” value ([…] phenol + […] m-cresol, pH 7.2, NaCl 110 mM) was 99.2%. For the same substance, the “Solubility of Insulin Aspart” value ([…] phenol + […] m-cresol, pH 7.2, NaCl 140 mM) was 101.1%, the “Solubility of Insulin Aspart” value ([…] phenol + […] m-cresol, pH 7.4, NaCl 50 mM) was 100.0% and the “Solubility of Insulin Aspart” value ([…] phenol + […] m-cresol, pH 7.4, NaCl 80 mM) was 99.6%. The “Solubility of Insulin Aspart” value ([…] phenol + […] m-cresol, pH 7.4, NaCl 110 mM) was 99.5%, the “Solubility of Insulin Aspart” value ([…] phenol + […] m-cresol, pH 7.4, NaCl 140 mM) was 101.1% and the “Solubility of Insulin Aspart” value ([…] phenol + […] m-cresol, pH 7.6, NaCl 50 mM) was 100.1%. The “Solubility of Insulin Aspart” value ([…] phenol + […] m-cresol, pH 7.6, NaCl 80 mM) was 99.7%, the “Solubility of Insulin Aspart” value ([…] phenol + […] m-cresol, pH 7.6, NaCl 110 mM) was 99.4% and the “Solubility of Insulin Aspart” value ([…] phenol + […] m-cresol, pH 7.6, NaCl 140 mM) was 101.1%.
